Tested on: Bacillus subtilis
Test: cleaved RNA product abundance (RNA/gDNA barcode ratio) relative to median wild-type variant (ratio to wild type); higher = more accumulation of the downstream cleavage product
Conditions: cleavage site: cggR-gapA (positions -7 to +36 mutated)
Procedure: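 MPRA in B. subtilis. Mutagenized RNase Y cleavage-site regions (9% mutation rate) were inserted into a barcoded reporter mRNA (truncated aprE or tetM). Cells were grown in LB at 37°C to OD600 0.3. The cleaved RNA isoform was gel-purified and its barcodes counted; the RNA:gDNA barcode ratio was normalised to the median wild-type variant, and the median over barcodes is reported per variant. The printed sequence is the variable window only; the reporter flanks are not printed.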

[1] = experiment (reporter, strain, medium): exp 4a: truncated aprE reporter, strain BJT201 with 2% xylose (RNase J1 expressed)
[2] = experiment (reporter, strain, medium): exp 2b: truncated aprE reporter, strain BJT200
[3] = experiment (reporter, strain, medium): exp 6: tetM reporter, strain 168

Row | Sequence | cleaved RNA product abundance [1] | cleaved RNA product abundance [2] | cleaved RNA product abundance [3]
1 | ACAGACGAAGGAGCCGCAAAGAAGCTATTAAGGGATCAATAATCCCTCAATATAAATATCTCTCACTTATTTAAA | 0.425 |  | 
2 | ACAGACGAAGGAGCCGCAAAGAAGCTATTAAGGGATGAAAAATCCCTCAATATAAATATCTCTCACTTATTTAAA | 0.491 | 0.391 | 
3 | ACAGACGAAGGAGCCGCAAAGAAGCTATTAAGGGATGAACAATCCCTCAATATAAATATCTCTCACTTATTTAAA | 0.568 |  | 
4 | ACAGACGAAGGAGCCGCAAAGAAGCTATTAAGGGATGAATAATACCTCAATATAAATATCTCTCACTTATTTAAA |  | 0.0928 | 
5 | ACAGACGAAGGAGCCGCAAAGAAGCTATTAAGGGATGAATAATCCCTAAATATAAATATCTCTCACTTATTTAAA | 0.407 | 0.346 | 
6 | ACAGACGAAGGAGCCGCAAAGAAGCTATTAAGGGATGAATAATCCCTCAATATAAAAATCTCTCACTTATTTAAA | 0.713 |  | 
7 | ACAGACGAAGGAGCCGCAAAGAAGCTATTAAGGGATGAATAATCCCTCAATATAAATAACTCTCACTTATTTAAA | 0.674 |  | 
8 | ACAGACGAAGGAGCCGCAAAGAAGCTATTAAGGGATGAATAATCCCTCAATATAAATATCTCTCACTTATTTAAA | 0.615 | 0.571 | 0.588
9 | ACAGACGAAGGAGCCGCAAAGAAGCTATTAAGGGATGAATAATCCCTCAATTTAAATATCTCTCACTTATTTAAA | 0.0606 |  | 
10 | ACAGACGAAGGAGCCGCAAAGAAGCTATTAAGGGATGAATAATCCCTCAGTATAAATATCTCTCACTTATTTAAA |  | 0.135 | 
11 | ACAGACGAAGGAGCCGCAAAGAAGCTATTAAGGGATGAATAATCCCTGAATATAAATATCTCTCACTTATTTAAA | 0.343 |  | 
12 | ACAGACGAAGGAGCCGCAAAGAAGCTATTAAGGGATGAATAATCCCTTAATATAAATATCTCTCACTTATTTAAA | 0.827 |  | 
13 | ACAGACGAAGGAGCCGCAAAGAAGCTATTAAGGGATGAATAATTCCTCAATATAAATATCTCTCACTTATTTAAA |  | 0.432 | 
14 | ACAGACGAAGGAGCCGCAAAGAAGCTATTAAGGGATGAATACTCCCTCAATATAAATATCTCTCACTTATTTAAA | 0.458 |  | 
15 | ACAGACGAAGGAGCCGCAAAGAAGCTATTAAGGGATGAATATTCCCTCAATATAAATATCTCTCACTTATTTAAA | 0.56 | 0.469 | 
16 | ACAGACGAAGGAGCCGCAAAGAAGCTATTAAGGGATGTATAATCCCTCAATATAAATATCTCTCACTTATTTAAA | 0.576 |  | 
17 | ACAGACGAAGGAGCCGCAAAGAAGCTATTAAGGTATGAATAATCCCTCAATATAAATATCTCTCACTTATTTAAA | 0.0903 | 0.0903 | 
18 | ACAGACGAAGGAGCCGCAAAGAAGCTATTAAGTGATGAATAATCCCTCAATATAAATATCTCTCACTTATTTAAA | 0.113 |  | 
19 | ACAGACGAAGGAGCCGCAAAGAAGCTATTAATGGATGAATAATCCCTCAATATAAATATCTCTCACTTATTTAAA | 0.123 |  | 
20 | ACAGACGAAGGAGCCGCAAAGAAGCTATTATGGGATGAATAATCCCTCAATATAAATATCTCTCACTTATTTAAA | 0.346 |  | 

Row | Sequence | cleaved RNA product abundance [1] | cleaved RNA product abundance [2] | cleaved RNA product abundance [3]
21 | ACAGACGAAGGAGCCGCAAAGAAGGAATTAAGGGATGAATAATCCCTCAATATAAATATCTCTCACTTATTTAAA | 0.353 |  | 
22 | ACAGACGAAGGAGCCGCAAAGAAGGTATTAAAGGATGAATAATCCCTCAATATAAATATCTCTCACTTATTTAAA | 0.189 |  | 
23 | ACAGACGAAGGAGCCGCAAAGAAGGTATTAAGAGATGAATAATCCCTCAATATAAATATCTCTCACTTATTTAAA | 0.171 |  | 
24 | ACAGACGAAGGAGCCGCAAAGAAGGTATTAAGGAATGAATAATCCCTCAATATAAATATCTCTCACTTATTTAAA | 0.194 | 0.145 | 
25 | ACAGACGAAGGAGCCGCAAAGAAGGTATTAAGGCATGAATAATCCCTCAATATAAATATCTCTCACTTATTTAAA | 0.101 |  | 
26 | ACAGACGAAGGAGCCGCAAAGAAGGTATTAAGGGATAAATAATCCCTCAATATAAATATCTCTCACTTATTTAAA | 1.29 |  | 
27 | ACAGACGAAGGAGCCGCAAAGAAGGTATTAAGGGATGAAAAATCCCTCAATATAAATATCTCTCACTTATTTAAA |  | 1.25 | 
28 | ACAGACGAAGGAGCCGCAAAGAAGGTATTAAGGGATGAATAATCCATCAATATAAATATCTCTCACTTATTTAAA | 0.13 |  | 
29 | ACAGACGAAGGAGCCGCAAAGAAGGTATTAAGGGATGAATAATCCCACAATATAAATATCTCTCACTTATTTAAA |  | 0.314 | 
30 | ACAGACGAAGGAGCCGCAAAGAAGGTATTAAGGGATGAATAATCCCCCAATATAAATATCTCTCACTTATTTAAA | 0.378 |  | 
31 | ACAGACGAAGGAGCCGCAAAGAAGGTATTAAGGGATGAATAATCCCTAAATATAAATATCTCTCACTTATTTAAA | 0.966 | 0.994 | 
32 | ACAGACGAAGGAGCCGCAAAGAAGGTATTAAGGGATGAATAATCCCTCAATATAAATATCTCTCACTTATTTAAA | 1.18 | 1.51 | 0.983
33 | ACAGACGAAGGAGCCGCAAAGAAGGTATTAAGGGATGAATAATCCCTCAATATAAATTTCTCTCACTTATTTAAA | 0.849 |  | 
34 | ACAGACGAAGGAGCCGCAAAGAAGGTATTAAGGGATGAATAATCCCTCAATATAACTATCTCTCACTTATTTAAA | 0.73 |  | 
35 | ACAGACGAAGGAGCCGCAAAGAAGGTATTAAGGGATGAATAATCCCTGAATATAAATATCTCTCACTTATTTAAA | 1.45 |  | 
36 | ACAGACGAAGGAGCCGCAAAGAAGGTATTAAGGGATGAATAATCCCTTAATATAAATATCTCTCACTTATTTAAA | 0.326 |  | 
37 | ACAGACGAAGGAGCCGCAAAGAAGGTATTAAGGGATGAATAATCGCTCAATATAAATATCTCTCACTTATTTAAA |  | 0.176 | 
38 | ACAGACGAAGGAGCCGCAAAGAAGGTATTAAGGTATGAATAATCCCTCAATATAAATATCTCTCACTTATTTAAA | 0.23 |  | 
39 | ACAGACGAAGGAGCCGCAAAGAAGGTATTAAGTGATGAATAATCCCTCAATATAAATATCTCTCACTTATTTAAA | 0.104 |  | 
40 | ACAGACGAAGGAGCCGCAAAGAAGGTCTTAAGGGATGAATAATCCCTCAATATAAATATCTCTCACTTATTTAAA | 0.115 |  | 

Row | Sequence | cleaved RNA product abundance [1] | cleaved RNA product abundance [2] | cleaved RNA product abundance [3]
41 | ACAGACGAAGGAGCCGCAAAGAAGTAAATAAGGAATGAATAATCCCTCAATATAAATATCTCTCACTTATTTAAA | 0.0667 |  | 
42 | ACAGACGAAGGAGCCGCAAAGAAGTAAATAAGGGATGAATAATCCCTCAATATAAATATCTCTCACTTATTTAAA | 0.258 | 0.151 | 
43 | ACAGACGAAGGAGCCGCAAAGAAGTAAGTAAGGGATGAATAATCCCTCAATATAAATATCTCTCACTTATTTAAA | 0.378 | 0.212 | 
44 | ACAGACGAAGGAGCCGCAAAGAAGTAATAAAGGGATGAATAATCCCTCAATATAAATATCTCTCACTTATTTAAA | 0.205 |  | 
45 | ACAGACGAAGGAGCCGCAAAGAAGTAATTAAAGGATGAATAATCCCTCAATATAAATATCTCTCACTTATTTAAA | 0.105 | 0.101 | 
46 | ACAGACGAAGGAGCCGCAAAGAAGTAATTAAAGGATTAATAATCCCTCAATATAAATATCTCTCACTTATTTAAA | 0.183 |  | 
47 | ACAGACGAAGGAGCCGCAAAGAAGTAATTAACGGATGAATAATCCCTCAATATAAATATCTCTCACTTATTTAAA | 0.133 |  | 
48 | ACAGACGAAGGAGCCGCAAAGAAGTAATTAACGGATGAATAATCCCTGAATATAAATATCTCTCACTTATTTAAA | 0.16 |  | 
49 | ACAGACGAAGGAGCCGCAAAGAAGTAATTAAGAGATAAATAATCCCTCAATATAAATATCTCTCACTTATTTAAA | 0.123 |  | 
50 | ACAGACGAAGGAGCCGCAAAGAAGTAATTAAGAGATGAATAATCCCTCAATATAAATATCTCTCACTTATTTAAA | 0.141 | 0.0957 | 
51 | ACAGACGAAGGAGCCGCAAAGAAGTAATTAAGCGATGAATAATCCCTCAATATAAATATCTCTCACTTATTTAAA | 0.157 |  | 
52 | ACAGACGAAGGAGCCGCAAAGAAGTAATTAAGGAATGAATAATCCCTCAATATAAATATCTCTCACTTATTTAAA | 0.0879 | 0.0931 | 
53 | ACAGACGAAGGAGCCGCAAAGAAGTAATTAAGGCATGAATAATCCCTCAATATAAATATCTCTCACTTATTTAAA | 0.0969 |  | 
54 | ACAGACGAAGGAGCCGCAAAGAAGTAATTAAGGGAAGAATAATCCCTCAATATAAATATCTCTCACTTATTTAAA | 0.263 | 0.117 | 
55 | ACAGACGAAGGAGCCGCAAAGAAGTAATTAAGGGACGAATAATCCCTCAATATAAATATCTCTCACTTATTTAAA | 0.175 | 0.139 | 
56 | ACAGACGAAGGAGCCGCAAAGAAGTAATTAAGGGATAAATAATCCCTCAATATAAATATCTCTCACTTATTTAAA | 0.219 | 0.256 | 
57 | ACAGACGAAGGAGCCGCAAAGAAGTAATTAAGGGATCAATAATCCCTCAATATAAATATCTCTCACTTATTTAAA | 0.305 | 0.181 | 
58 | ACAGACGAAGGAGCCGCAAAGAAGTAATTAAGGGATGAAAAATCCCTCAATATAAATATCTCTCACTTATTTAAA | 0.272 | 0.163 | 

Source: the supplement of paper PMC11780869
